Tests used:
Assay in all cases: cell-based or functional assay
[1] = biological target: HIV-1 Env of isolate MGRM-G-027 (subtype G) (HIV-1)
[2] = biological target: HIV-1 Env of isolate MGRM-C-010 (pseudovirus) (HIV-1 isolate MGRM-C-010, subtype C)
[3] = biological target: HIV-1 Env of isolate MGRM-F1-020 (HIV-1)
[4] = biological target: HIV-1 MGRM-D-018 envelope glycoprotein (Env) on pseudovirus (HIV-1)
[5] = biological target: HIV-1 SF162 Env (pseudovirus) (HIV-1) (UniProt P19550)
[6] = biological target: HIV-1 Env of isolate MGRM-G-024 (HIV-1)
[7] = biological target: HIV-1 Env of isolate MGRM-C-008 (pseudovirus) (HIV-1 isolate MGRM-C-008, subtype C)
[8] = biological target: HIV-1 93IN905 envelope glycoprotein (Env) on pseudovirus (HIV-1)
[9] = biological target: HIV-1 Env of isolate MGRM-F1-017 (HIV-1)
[10] = biological target: HIV-1 JR-CSF Env D474A (HIV-1 (isolate JR-CSF)) (UniProt P20871)
[11] = biological target: HIV-1 Env of isolate MGRM-C-017 (pseudovirus) (HIV-1 isolate MGRM-C-017, subtype C)
[12] = biological target: HIV-1 92BR020 Env (pseudovirus) (HIV-1)
[13] = biological target: HIV-1 Env of isolate 98CN009 (subtype CRF07_BC) (HIV-1)
[14] = biological target: HIV-1 Env of isolate MGRM-C-014 (pseudovirus) (HIV-1 isolate MGRM-C-014, subtype C)
[15] = biological target: HIV-1 Env of isolate MG RM-D-003 (subtype D) (HIV-1)
[16] = biological target: HIV-1 APV_6 Env (pseudovirus) (HIV-1)
[17] = biological target: HIV-1 Env of isolate MGRM-F1-023 (HIV-1)
[18] = biological target: HIV-1 QH0692.42 Env (pseudovirus) (HIV-1)
[19] = biological target: HIV-1 Env of isolate MG RM-D-026 (subtype D) (HIV-1)
[20] = biological target: HIV-1 Env of isolate MGRM-C-026 (pseudovirus) (HIV-1 isolate MGRM-C-026, subtype C)
[21] = biological target: HIV-1 MGRM-Chronic-B-003 Env (pseudovirus) (HIV-1)
[22] = biological target: aMLV envelope on pseudovirus (negative control virus)
[23] = biological target: HIV-1 Env of isolate 92WR021 (HIV-1)
[24] = biological target: HIV-1 Env of isolate SC422661.8 (HIV-1)
[25] = biological target: HIV-1 Env of isolate MGRM-AE-006 (CRF01_AE), on pseudovirus (HIV-1)
[26] = biological target: HIV-1 Env of isolate MGRM-AG-006 (CRF_AG), on pseudovirus (HIV-1)
[27] = biological target: HIV-1 Env of isolate MGRM-D-002 (HIV-1)
[28] = biological target: HIV-1 Env of isolate MGRM-F1-021 (subtype F), on pseudovirus (HIV-1)
[29] = biological target: HIV-1 Env of isolate MGRM-AG-009 (CRF_AG), on pseudovirus (HIV-1)
[30] = biological target: HIV-1 Env of isolate MGRM-C-017 (HIV-1)
[31] = biological target: HIV-1 MGRM-C-022 Env (HIV-1)
[32] = biological target: HIV-1 MGRM-C-014 Env (HIV-1)
[33] = biological target: HIV-1 MGRM-C-004 Env (HIV-1)
[34] = biological target: HIV-1 92RW008 envelope glycoprotein (Env) (HIV-1)
[35] = biological target: HIV-1 APV-17 envelope protein (Env) on pseudovirus (HIV-1)
[36] = biological target: HIV-1 JRCSF envelope glycoprotein (Env) on pseudovirus (HIV-1)
[37] = biological target: HIV-1 Env of isolate 92UG024 (clade D) (HIV-1)
[38] = biological target: HIV-1 MGRM-A-014 envelope glycoprotein (Env) (HIV-1)
[39] = biological target: HIV-1 Env of isolate MGRM-D-026 (clade D) (HIV-1)
[40] = biological target: HIV-1 MGRM-A-012 envelope glycoprotein (Env) (HIV-1)

5329_C19 (PGT-136) (antibody), sequence (VH): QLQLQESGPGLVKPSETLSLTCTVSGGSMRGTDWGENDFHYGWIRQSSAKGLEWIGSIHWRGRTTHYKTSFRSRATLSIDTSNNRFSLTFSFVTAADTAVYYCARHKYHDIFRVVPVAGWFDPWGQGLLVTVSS
5329_C19 (PGT-136) (antibody), sequence (VL): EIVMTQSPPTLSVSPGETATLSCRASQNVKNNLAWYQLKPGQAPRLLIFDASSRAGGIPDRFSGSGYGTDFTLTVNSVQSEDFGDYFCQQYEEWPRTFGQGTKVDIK
PGT-144 (4970_K22) (antibody), sequence (VH): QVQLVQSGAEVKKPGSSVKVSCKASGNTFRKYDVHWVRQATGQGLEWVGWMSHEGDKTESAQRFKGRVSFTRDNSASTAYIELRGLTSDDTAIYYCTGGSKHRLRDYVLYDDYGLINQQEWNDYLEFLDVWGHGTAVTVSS
PGT-144 (4970_K22) (antibody), sequence (VL): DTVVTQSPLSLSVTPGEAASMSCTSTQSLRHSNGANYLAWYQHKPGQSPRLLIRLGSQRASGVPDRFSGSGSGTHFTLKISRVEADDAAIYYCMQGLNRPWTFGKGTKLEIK
PGT-142 (4995_E20) (antibody), sequence (VH): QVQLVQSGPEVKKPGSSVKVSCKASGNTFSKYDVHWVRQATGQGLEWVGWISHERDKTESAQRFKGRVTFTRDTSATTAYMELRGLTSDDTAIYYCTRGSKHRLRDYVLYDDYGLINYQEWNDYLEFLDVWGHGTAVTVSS
PGT-142 (4995_E20) (antibody), sequence (VL): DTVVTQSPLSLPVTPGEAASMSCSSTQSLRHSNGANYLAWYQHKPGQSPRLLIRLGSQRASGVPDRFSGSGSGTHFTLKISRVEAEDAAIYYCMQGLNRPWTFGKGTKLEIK
PGT-141 (4964_G22; 4993_K13) (antibody), sequence (VH): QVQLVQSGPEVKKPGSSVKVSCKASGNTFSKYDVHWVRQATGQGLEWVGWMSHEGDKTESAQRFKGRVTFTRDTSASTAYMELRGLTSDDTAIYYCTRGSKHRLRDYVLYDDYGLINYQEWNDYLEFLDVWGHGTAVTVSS
PGT-143 (4980_N08) (antibody), sequence (VH): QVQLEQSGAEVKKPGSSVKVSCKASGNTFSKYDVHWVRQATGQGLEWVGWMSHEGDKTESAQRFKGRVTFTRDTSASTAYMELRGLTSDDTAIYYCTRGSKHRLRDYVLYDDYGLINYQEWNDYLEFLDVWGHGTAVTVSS
PGT-143 (4980_N08) (antibody), sequence (VL): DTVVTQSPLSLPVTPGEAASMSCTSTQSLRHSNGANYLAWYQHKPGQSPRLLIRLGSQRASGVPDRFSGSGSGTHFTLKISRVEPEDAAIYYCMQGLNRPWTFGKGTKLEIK

Substance	neutralization IC50 [1]	IC50 (µg/mL) neutralization [2]	IC50 [3]	IC50 (ug/ml), neutralizing activity [4]	IC50, pseudovirus neutralization [5]	IC50, pseudovirus neutralization [6]	IC50 (µg/mL) neutralization [7]	IC50 (ug/ml), neutralizing activity [8]	IC50 [9]	IC50 (µg/mL) neutralization [11]	IC50, pseudovirus neutralization [12]	IC50 (µg/mL), pseudovirus neutralization [13]	IC50 (µg/mL) neutralization [14]	IC50 (µg/mL), pseudovirus neutralization [15]	IC50, pseudovirus neutralization [16]	IC50 [17]	IC50, pseudovirus neutralization [18]	IC50 (µg/mL), pseudovirus neutralization [19]	IC50 (µg/mL) neutralization [20]	IC50, pseudovirus neutralization [21]	also measured
PGT-144 (4970_K22) (antibody)	> 50 µg/mL	–	–	–	–	–	–	–	–	–	–	–	–	–	–	–	–	–	–	–	–
PGT-143 (4980_N08) (antibody)	> 50 µg/mL	–	–	–	–	–	–	–	–	–	–	–	–	–	–	–	–	–	–	–	–
5123_A06 (PGT-125) (antibody)	–	> 50 µg/mL	> 50 µg/mL	0.0382 µg/mL	0.004 µg/mL	> 50 µg/mL	> 50 µg/mL	0.0137 µg/mL	> 50 µg/mL	2.36 µg/mL	0.016 µg/mL	0.03 µg/mL	> 50 µg/mL	0.065 µg/mL	0.021 µg/mL	0.12 µg/mL	0.048 µg/mL	> 50 µg/mL	0.005 µg/mL	0.157 µg/mL	neutralization IC50 [4]: 0.0382 µg/mL; neutralization IC80 [4]: 0.144 µg/mL; neutralization IC90 [4]: 0.339 µg/mL; neutralization IC95 [4]: 0.892 µg/mL; neutralization IC50 [8]: 0.0137 µg/mL; neutralization IC80 [8]: 0.0494 µg/mL; neutralization IC90 [8]: 0.106 µg/mL; neutralization IC95 [8]: 0.216 µg/mL; Fold IC50 increase relative to wild-type [10]: 1.4 fold; IC50 (ug/ml), neutralizing activity [22]: > 10 µg/mL
PGT-122 (antibody)	–	–	–	–	–	–	–	–	–	–	–	–	–	–	–	–	–	–	–	–	IC50 (µg/mL), pseudovirus neutralization [23]: 0.021 µg/mL
VRC01 (antibody)	0.36 µg/mL	–	–	–	–	–	–	–	–	–	–	–	–	–	–	–	–	–	–	–	IC50, pseudovirus neutralization [3]: 1.89 µg/mL; IC50, pseudovirus neutralization [9]: 1.08 µg/mL; neutralization IC50 [24]: 0.179 µg/mL; IC50, pseudovirus neutralization [17]: 0.392 µg/mL
5141_B17 (PGT-126) (antibody)	–	> 50 µg/mL	> 50 µg/mL	0.0093 µg/mL	0.003 µg/mL	> 50 µg/mL	2.12 µg/mL	0.0194 µg/mL	> 50 µg/mL	0.17 µg/mL	0.015 µg/mL	0.019 µg/mL	> 50 µg/mL	0.021 µg/mL	0.007 µg/mL	0.009 µg/mL	0.048 µg/mL	> 50 µg/mL	0.007 µg/mL	0.041 µg/mL	Fold IC50 increase relative to wild-type [10]: 3.3 fold; IC50 [12]: 0.0163 µg/mL; IC80 [12]: 0.0457 µg/mL; IC90 [12]: 0.0846 µg/mL; IC95 [12]: 0.152 µg/mL; IC50 (ug/ml), neutralizing activity [22]: > 10 µg/mL
5329_C19 (PGT-136) (antibody)	–	–	–	–	–	0.152 µg/mL	–	–	–	–	–	–	–	–	–	–	–	–	–	–	IC50, single-round pseudovirus neutralization [25]: > 50 µg/mL; IC50, single-round pseudovirus neutralization [26]: 29.1 µg/mL; IC50 [27]: > 50 µg/mL; IC50, pseudovirus neutralization [28]: > 50 µg/mL; IC50, single-round pseudovirus neutralization [29]: > 50 µg/mL; IC50 [24]: > 50 µg/mL; IC50 [30]: > 50 µg/mL; neutralization IC50 [23]: > 50 µg/mL
PGT-141 (4964_G22; 4993_K13) (antibody)	> 50 µg/mL	–	–	–	–	–	–	–	–	–	–	–	–	–	–	–	–	–	–	–	–
4838_L06 (PGT-121) (antibody)	–	> 50 µg/mL	0.167 µg/mL	–	0.005 µg/mL	–	0.012 µg/mL	–	16.9 µg/mL	0.009 µg/mL	–	0.009 µg/mL	26.9 µg/mL	10.7 µg/mL	0.018 µg/mL	0.097 µg/mL	0.823 µg/mL	> 50 µg/mL	0.002 µg/mL	0.011 µg/mL	neutralization IC80 [12]: 0.0532 µg/mL; neutralization IC90 [12]: 0.101 µg/mL; IC50 (ug/ml), neutralizing activity [22]: > 10 µg/mL
4858_P08 (PGT-123) (antibody)	–	> 50 µg/mL	0.051 µg/mL	0.0047 µg/mL	0.005 µg/mL	0.032 µg/mL	0.011 µg/mL	0.0071 µg/mL	> 50 µg/mL	0.01 µg/mL	0.008 µg/mL	0.007 µg/mL	1 µg/mL	3.74 µg/mL	0.023 µg/mL	0.053 µg/mL	0.158 µg/mL	> 50 µg/mL	0.001 µg/mL	0.008 µg/mL	IC50, pseudovirus neutralization [4]: 0.0047 µg/mL; IC80, pseudovirus neutralization [4]: 0.0175 µg/mL; IC90 (pseudovirus neutralization) [4]: 0.0381 µg/mL; IC95, pseudovirus neutralization [4]: 0.0791 µg/mL; IC50, pseudovirus neutralization [8]: 0.0071 µg/mL; IC80, pseudovirus neutralization [8]: 0.0281 µg/mL; IC90 (pseudovirus neutralization) [8]: 0.0625 µg/mL; IC95, pseudovirus neutralization [8]: 0.131 µg/mL; Fold IC50 increase relative to wild-type [10]: 1.1 fold; IC50 (ug/ml), neutralizing activity [22]: > 10 µg/mL
5145_B14 (PGT-127) (antibody)	–	> 50 µg/mL	> 50 µg/mL	–	0.019 µg/mL	> 50 µg/mL	> 50 µg/mL	–	> 50 µg/mL	3.4 µg/mL	0.059 µg/mL	0.09 µg/mL	> 50 µg/mL	0.029 µg/mL	0.04 µg/mL	0.119 µg/mL	0.129 µg/mL	> 50 µg/mL	0.014 µg/mL	0.12 µg/mL	Fold IC50 increase relative to wild-type [10]: 1.5 fold
1496_C09 (PG9) (TCN-109) (antibody)	0.007 µg/mL	–	–	2.04 µg/mL	–	–	–	0.048 µg/mL	–	–	–	–	–	–	–	–	–	–	–	–	IC50 [31]: 0.19 µg/mL; IC50 [32]: 0.64 µg/mL; IC50 [33]: 1.18 µg/mL; IC50 neutralization [4]: 0.0444 µg/mL; IC80, neutralization [4]: 0.18 µg/mL; IC90, neutralization [4]: 0.43 µg/mL; IC95, neutralization [4]: 1.05 µg/mL; IC50 (µg/ml), pseudovirus neutralization [34]: 0.01 µg/mL; IC50 (µg/mL), pseudovirus neutralization [27]: 0.021 µg/mL; neutralization IC50 [35]: 26.4 µg/mL; IC50 neutralization [8]: 0.048 µg/mL; IC80, neutralization [8]: 0.308 µg/mL; IC90 (pseudovirus neutralization) [8]: 1.89 µg/mL; IC90, neutralization [8]: 0.981 µg/mL; IC95, neutralization [8]: 3.31 µg/mL; IC90 (pseudovirus neutralization) [36]: < 0.0025 µg/mL; IC50 (µg/ml), pseudovirus neutralization [37]: 1.91 µg/mL; IC50 (µg/ml), pseudovirus neutralization [38]: 0.62 µg/mL; IC50 (µg/ml), pseudovirus neutralization [39]: 17.5 µg/mL; IC50 (µg/ml), pseudovirus neutralization [40]: 11.2 µg/mL
PGT-142 (4995_E20) (antibody)	> 50 µg/mL	–	–	–	–	–	–	–	–	–	–	–	–	–	–	–	–	–	–	–	–
PGV04 (antibody)	0.125 µg/mL	–	–	–	–	–	–	–	–	–	–	–	–	–	–	–	–	–	–	–	IC50 (µg/mL), pseudovirus neutralization [27]: 0.322 µg/mL
PGT-121 (antibody)	–	–	–	–	–	–	–	–	–	–	–	–	–	–	–	–	–	–	–	–	IC50 (µg/mL), pseudovirus neutralization [23]: 0.009 µg/mL
4877_D15 (PGT-122) (antibody)	–	> 50 µg/mL	0.321 µg/mL	0.0115 µg/mL	0.009 µg/mL	0.033 µg/mL	0.028 µg/mL	0.0138 µg/mL	> 50 µg/mL	0.015 µg/mL	0.021 µg/mL	0.013 µg/mL	> 50 µg/mL	> 50 µg/mL	0.019 µg/mL	0.154 µg/mL	0.493 µg/mL	> 50 µg/mL	0.006 µg/mL	0.008 µg/mL	IC50 (ug/ml), neutralizing activity [22]: > 10 µg/mL

From patent US20200024330A1
